The numbers were not newly measured in publication PMC5578180, which cites them from elsewhere.

One may read the pKa as the negative logarithm of the acid dissociation constant.

This data set relates to His193. The data set is described as follows: kinetics. Particulars: folded, green (pre-photoconversion) state of LEA under illumination.

Consider “Least Evolved Ancestor (LEA), ancestral reconstructed green-to-red photoconvertible GFP-like fluorescent protein (synthetic construct (ancestral gene reconstruction of Faviina coral GFP-like proteins; lineage of the great star coral, printed as Monastrea cavernosa); A60V;Q62H;T69A;D74H;T104R;S105N;Y116N;M154T;V157I;R194C;R216H;del217;L219G)”, for which the pKa is listed as 7.5.
